The text below walks through data of CN113773389A.

The test concerns the target T1, 人胸苷激酶1(TK1) (human) (UniProt P04183).
T1 sequence (looked up): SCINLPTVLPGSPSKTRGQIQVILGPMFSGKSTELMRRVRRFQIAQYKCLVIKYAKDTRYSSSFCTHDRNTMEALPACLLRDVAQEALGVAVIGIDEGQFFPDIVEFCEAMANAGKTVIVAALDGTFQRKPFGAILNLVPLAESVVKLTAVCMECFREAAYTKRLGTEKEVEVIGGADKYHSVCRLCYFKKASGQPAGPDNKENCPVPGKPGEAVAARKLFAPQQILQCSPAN
Briefly: cell-based or functional assay.

B1: 鼠抗人胸苷激酶1-IgG单克隆抗体(SSTK小鼠杂交瘤细胞株057M) (antibody, V domains shown)
VH: EVKLVESGGGLAQPGGSLRLSCATSGFTFSDYYMNWVRQPPGKAFEWLGFIRNKEYGNTAEYNPSLKGRFTISRDDSQSILYLQMNTLRVEDSAIYYCARDGAFDYWGQGTSLTVSS
VL: DIVMTQSPASLAVSLGQRATISCRASKSVSTSGYSYMHWNQQKPGQPPKLLIYLASNLESGVPARFSGSGSGTDFTLNIHPVEEEDAATYYCQESREFPTVGGGTNLEIK
B1: the 肿瘤细胞凋亡频率 (Annexin V-FITC/PI), KATO-Ⅲ, 10μg/ml antibody, 72 h is 3.49 倍; the 肿瘤细胞凋亡频率 (Annexin V-FITC/PI), KATO-Ⅲ(STEM), 10μg/ml antibody, 72 h is 2.59 倍; the 肿瘤细胞凋亡频率 (Annexin V-FITC/PI), NCI-N87, 10μg/ml antibody, 72 h was 1.46 倍; the 肿瘤细胞凋亡频率 (Annexin V-FITC/PI), NCI-N87(STEM), 10μg/ml antibody, 72 h is 2.21 倍. This molecule yielded a 肿瘤细胞生存活力 (CCK-8), KATO-Ⅲ, 100μg/ml antibody, 72 h of 56.3%; a 肿瘤细胞生存活力 (CCK-8), KATO-Ⅲ(STEM), 100μg/ml antibody, 72 h of 66.6%; a 肿瘤细胞生存活力 (CCK-8), NCI-N87, 100μg/mL antibody, 72 h of 85%; a 肿瘤细胞生存活力 (CCK-8), NCI-N87(STEM), 100μg/mL antibody, 72 h of 66.6%.
